In patent publication US20210214460A1 (AstraZeneca / MedImmune, published 2021):

T1: monomeric human sBCMA (GenScript) (human, UniProt Q02223 1-54)
T1 construct: extracellular domain; also called monomeric BCMA; monomeric (soluble) BCMA
T1 sequence (looked up): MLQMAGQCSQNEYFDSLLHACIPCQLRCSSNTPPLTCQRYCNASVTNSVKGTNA

T2: membrane-bound human BCMA (human, UniProt Q02223 1-184)
T2 construct: whole, on cells; also called huBCMA
T2 sequence (looked up): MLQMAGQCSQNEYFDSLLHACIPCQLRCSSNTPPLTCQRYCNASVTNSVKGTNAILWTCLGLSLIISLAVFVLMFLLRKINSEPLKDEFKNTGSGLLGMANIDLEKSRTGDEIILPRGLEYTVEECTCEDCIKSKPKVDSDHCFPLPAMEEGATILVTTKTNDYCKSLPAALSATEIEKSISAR


Legend:
[1] = target: T1, monomeric human sBCMA (GenScript); assay: SPR (ProteOn XPR36), antibody captured by anti-Fc, sBCMA 100-6.25 nM as analyte
Method: The binding of 15B2GL monoclonal antibody and optimized clones I09, L15, P10, N22, and M02 (described in Example 1) was assessed using monomeric human sBCMA (GenScript, Piscataway, N.J.) using a ProteOn™ XPR36 instrument (Bio-Rad, Hercules, Calif.). The binding of J6M0 also was assessed for comparison. Standard amine coupling was used to immobilize 25 μg/ml anti-Fc polyclonal antibody (Jackson ImmunoResearch, West Grove, Pa.) prepared in 10 mM sodium acetate buffer (pH 4.5) to the surface of a ProteOn™ GLC biosensor chip (Bio-Rad, Hercules, Calif.) pre-activated with 20 mM EDAC (1-ethyl-3-(3-dimethylaminopropyl)carbodiimide hydrochloride) and 5 mM Sulfo-NHS (N-hydroxysulfosuccinimide) at a density of ˜200-600 resonance units (RU). 15B2GL, I09, L15, P10, N22, M02, and J6M0 were subsequently injected at a concentration of 1 μg/ml for capture by the immobilized anti-Fc polyclonal antibody. The sensorgram was recorded by flowing two-fold serial dilutions of sBCMA prepared in PBS (pH 7.4) with 0.005% (v/v) Tween®-20, ranging from 100-6.25 nM, over the captured surface for 150 seconds at 75 μL/minute with dissociation time of 600 seconds. ProteOn™ data analysis software was used to analyze the data.

[2] = target: T2, membrane-bound human BCMA; assay: flow cytometry on MM.1S cells (endogenous BCMA), printed as apparent affinity
Method: (§1) Binding of 15B2GL, I09, L15, and J6M0 to membrane-bound human BCMA was evaluated using flow cytometry in multiple myeloma and plasma cell leukemia cell lines that endogenously express BCMA (NCI-H929 and MM.1S, respectively). Binding of 15B2GL, 109, L15 to membrane-bound human BCMA was also evaluated in Ad293 cells expressing human BCMA. Binding assays were performed by incubating the anti-BCMA antibodies with 200,000 cells for 30 minutes at 4° C. followed by two washes with PBS+2% FBS (FACS Buffer). A range of antibody concentrations were evaluated using a 12-point, 3-fold dilution series. Cells were then incubated with 5 ug/mL goat-anti human IgG-AF647 secondary antibodies (Thermo Fisher Scientific, Waltham, Mass.) at 4° C., followed by two washes in PBS+2% FBS. Cells were resuspended in 200 uL PBS+2% FBS+DAPI.
(§2) Fluorescence of live, single cells was measured using a BD Biosciences LSRII cytometer and BD FACSDiva™ software (BD Biosciences, San Jose, Calif.). Data were analyzed using FlowJo™ software (FlowJo, LLC, Ashland, Oreg.). Mean fluorescence intensity values were used to determine percentage bound and EC50 was determined using Prism™ software (GraphPad Software Inc, La Jolla, Calif.).

[3] = target: T2, membrane-bound human BCMA; assay: flow cytometry on NCI-H929 cells (endogenous BCMA), printed as apparent affinity
Method: as §1, §2

[4] = target: T2, membrane-bound human BCMA; assay: flow cytometry on Ad293 cells expressing human BCMA, printed as apparent affinity
Method: as §1, §2

Binder | Kd [1] | EC50 [2] | EC50 [3] | EC50 [4]
M02 (lead optimized clone of 15B2GL) (antibody, V domains shown, Cloned into an IgG mammalian expression vector ("Maia") designed for ADC conjugation) VH: EVQLVESGGGLVKPGGSLRLSCAASGFTFSSYSMNWVRQAPGKGLEWVSSISGQSNYIYYADSVKGRFTISRDNAKNSLYLQMNSLRAEDTAVYYCARGGNYYVEYFQYWGQGTLVTVSS VL: EIVLTQSPGTLSLSPGERATLSCRASQYISSNNLAWYQQKPGQAPRLLIYGASNRATGIPDRFSGSGSGTDFTLTISRLEPEDFAVYYCQQYSSDPITFGQGTKLEIK | 9.9 nM |  |  | 
P10 (lead optimized clone of 15B2GL) (antibody, V domains shown, Cloned into an IgG mammalian expression vector ("Maia") designed for ADC conjugation) VH: EVQLVESGGGLVKPGGSLRLSCAASGFTFRSYSMNWVRQAPGKGLEWVSSISGQSNYIYYADSVKGRFTISRDNAKNSLYLQMNSLRAEDTAVYYCARGGNYYVEYFQYWGQGTLVTVSS VL: EIVLTQSPGTLSLSPGERATLSCRASQYISSNYLAWYQQKPGQAPRLLIYGASNRATGIPDRFSGSGSGTDFTLTISRLEPEDFAVYYCQQYTDSPITFGQGTKLEIK | 5.3 nM |  |  | 
I09 (lead optimized clone of 15B2GL) (antibody, V domains shown, Cloned into an IgG mammalian expression vector ("Maia") designed for ADC conjugation; also called 109 [sic]) VH: EVQLVESGGGLVKPGGSLRLSCAASGFTFSSYSMNWVRQAPGKGLEWVSSISGSSNYIYYADSVKGRFTISRDNAKNSLYLQMNSLRAEDTAVYYCARGGNYFVEYFQQWGQGTLVTVSS VL: EIVLTQSPGTLSLSPGERATLSCRASQYISSNYLAWYQQKPGQAPRLLIYGASNRATGIPDRFSGSGSGTDFTLTISRLEPEDFAVYYCQQYSSDPITFGQGTKLEIK | 9.8 nM | 4.8 nM | 5.4 nM | 5.3 nM

Now from value to binder:

Kd [1] | EC50 [2] | EC50 [3] | EC50 [4] | Binder
4.5 nM | 4.2 nM | 4.2 nM | 4.48 nM | L15 (lead optimized clone of 15B2GL) (antibody, V domains shown, Cloned into an IgG mammalian expression vector ("Maia") designed for ADC conjugation) VH: EVQLVESGGGLVKPGGSLRLSCAASGFTFSSYSMNWVRQAPGKGLEWVSSISGQSNYIYYADSVKGRFTISRDNAKNSLYLQMNSLRAEDTAVYYCARGGNYFVEYFQYWGQGTLVTVSS VL: EIVLTQSPGTLSLSPGERATLSCRASQYISSNNLAWYQQKPGQAPRLLIYGASNRATGIPDRFSGSGSGTDFTLTISRLEPEDFAVYYCQQYADSPITFGQGTKLEIK
16 nM |  |  |  | N22 (lead optimized clone of 15B2GL) (antibody, V domains shown, Cloned into an IgG mammalian expression vector ("Maia") designed for ADC conjugation) VH: EVQLVESGGGLVKPGGSLRLSCAASGFTFSSYSMNWVRQAPGKGLEWVSSISGSSNYIYYADSVKGRFTISRDNAKNSLYLQMNSLRAEDTAVYYCARGGNYFVEYFQYWGQGTLVTVSS VL: EIVLTQSPGTLSLSPGERATLSCRASQYISSNYLAWYQQKPGQAPRLLIYGASNRATGIPDRFSGSGSGTDFTLTISRLEPEDFAVYYCQQYSSSPITFGQGTKLEIK
